Tests used:
[1] = biological target: human SCARB2 on 293A-hSCARB2 cells pretreated with PNGase F (human) (UniProt Q14108)
[2] = biological target: human SCARB2 on 293A-hSCARB2 cells pretreated with PNGase F (human) (UniProt Q14108); assay: flow cytometry on cells; binding of EV71 to 293A-hSCARB2 cells pretreated with or without PNGase F; details in the Extended Experimental Procedures
[3] = biological target: EV71 mature virions (human enterovirus 71 (EV71))
[4] = biological target: EV71 mature virions (human enterovirus 71 (EV71)); remark: listed apart in the source
[5] = biological target: T1, EV71 mature virions (human enterovirus 71 (EV71)); assay: ITC
T1 chain 1: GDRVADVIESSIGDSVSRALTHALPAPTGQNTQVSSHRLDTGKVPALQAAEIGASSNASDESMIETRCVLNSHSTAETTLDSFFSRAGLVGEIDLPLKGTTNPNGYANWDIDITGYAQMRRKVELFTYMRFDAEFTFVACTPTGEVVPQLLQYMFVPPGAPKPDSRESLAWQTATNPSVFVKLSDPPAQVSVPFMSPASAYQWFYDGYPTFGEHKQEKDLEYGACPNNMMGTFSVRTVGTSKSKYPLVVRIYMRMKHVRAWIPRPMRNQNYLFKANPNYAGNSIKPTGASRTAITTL
T1 chain 2: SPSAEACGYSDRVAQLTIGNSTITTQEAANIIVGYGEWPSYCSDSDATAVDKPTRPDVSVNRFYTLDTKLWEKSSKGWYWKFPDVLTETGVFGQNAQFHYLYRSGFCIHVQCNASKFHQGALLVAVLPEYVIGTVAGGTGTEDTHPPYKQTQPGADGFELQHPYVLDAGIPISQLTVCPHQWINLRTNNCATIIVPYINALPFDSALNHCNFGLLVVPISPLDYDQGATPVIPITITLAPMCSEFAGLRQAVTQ
T1 chain 3: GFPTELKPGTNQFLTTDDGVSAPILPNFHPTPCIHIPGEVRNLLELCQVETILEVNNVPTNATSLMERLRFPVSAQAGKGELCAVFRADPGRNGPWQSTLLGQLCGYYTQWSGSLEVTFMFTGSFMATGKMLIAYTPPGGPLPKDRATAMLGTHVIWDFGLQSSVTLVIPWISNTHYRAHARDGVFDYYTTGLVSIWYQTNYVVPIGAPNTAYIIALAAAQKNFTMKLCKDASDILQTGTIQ
T1 chain 4: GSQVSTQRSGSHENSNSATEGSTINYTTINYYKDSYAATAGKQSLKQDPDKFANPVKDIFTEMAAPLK

human SCARB2 on 293A-hSCARB2 cells pretreated with PNGase F (human), sequence (Q14108 whole entry): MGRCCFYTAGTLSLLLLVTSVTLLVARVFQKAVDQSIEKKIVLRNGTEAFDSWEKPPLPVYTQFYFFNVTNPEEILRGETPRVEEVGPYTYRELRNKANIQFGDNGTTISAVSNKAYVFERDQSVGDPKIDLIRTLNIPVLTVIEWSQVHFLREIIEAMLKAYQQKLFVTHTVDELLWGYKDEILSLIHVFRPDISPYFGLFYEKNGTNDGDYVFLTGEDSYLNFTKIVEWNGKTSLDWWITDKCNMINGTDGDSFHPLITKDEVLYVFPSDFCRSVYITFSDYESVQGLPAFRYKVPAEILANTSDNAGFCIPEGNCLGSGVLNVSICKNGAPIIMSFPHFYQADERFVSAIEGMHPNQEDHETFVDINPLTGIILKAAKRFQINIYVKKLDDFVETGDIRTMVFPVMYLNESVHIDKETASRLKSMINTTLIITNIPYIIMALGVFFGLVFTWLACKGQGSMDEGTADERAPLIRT

**Q.** What does the source list for EV71 mature virions (complex)?
**A.** decrease in infection efficiency of EV71-GFP on 293A-hSCARB2 cells pretreated with PNGase F, against untreated cells (GFP-positive cells 16 h post infection) [1]: 40%; reduction of binding against untreated cells [2]: 30%

**Q.** Which results are given for “recombinant SCARB2-His-tag protein (ectodomain of scavenger receptor class B 2)”?
**A.** [3H]-labeled sphingosine removed from EV71 mature virions by excess recombinant SCARB2 (60:1) at pH 5.0, 37°C, 1-4 h [3]: 90%; conversion of mature virions (~160 S) into ~125 S particles (A particles) by sedimentation velocity AUC after 1 h at 37°C with SCARB2 at pH 7.4 [4]: 5%

**Q.** How did the Kd [5] turn out when WSQVHFLREIIEAMLKAYQQK [synthesized peptide of SCARB2 (aa 146-166)] was run?
**A.** 4.2 µM
